A protein production outcome set (Wang et al. 2014)

Assay: label from the status in PepcDB records

Sequence | protein production
RSRRFAHLQLFAHLELPCWARIRDLLNIGLPIGISILMEGGLFIVTTLLIGRFGTDEIAAHQIALSVAQLCFMIPMGVAEATTVRIGHAVGRCDLLVMRRVAWAGYAIVIGTQTLSASVLLLGYDVIVAAYTDDLVVASLASKLLLFAAIFQFPDGLQMLSSGVLRGMKDTRVPM | failed
RTALRTEYALRQEAQAARKHAEGILASISDGFIALDEQYRFTYVNAAAERLIASTAEELIGKVYWDVYPMMLGTKIEQAYRRAMTERVACEFESYHPPSKRWFELRVAPTNGKSISVYFRDITEQKKAEAALRDINEQLEEQV | failed
RTFESVADLAAAAGEKVGQSDWVTITQEEVNLFADATGDHQWIHVDPERAAAGPFGTTIAHGFMTLALLPRLQHQMYTVKGVKLAINYGLNKVRFPAPVPVGSRVRATSSLVGVEDLGNGTVQATVSTTVEVEGSAKPACVAESIVRYVA | not failed
RTHTGEKPYACSHCDKTFRQKQLLDMHFKRYHDPNFVPAAFVCSKCGKTFTRRNTMARHADNCAGPDGVEGEN | not failed
RYTNILVPVDSSDAAQAAFTEAVNIAQRHQANLTALYVVDDSAYHTPALDPVLSELLDAEAAHAKDAMRQRQQFVATTSAPNLKTEISYGIPKHTIEDYAKQHPEIDLIVLGATGTNSPHRVAVGSTTSYVVDHAPCNVIVIR | not failed
SAAPGPALCLFDVDGTLTAPRQKITKEMDDFLQKLRQKIKIGVVGGSDFEKVQEQLGNDVVEKYDYVFPENGLVAYKDGKLLCRQNIQSHLGEALIQDLINYCLSYIAKIKLPKKRGTFIEFRNGMLNVSPIGRSCSQEERIEFYELDKKENIRQKFVADLRKEFAGKGLTFSIGGQISFDVFPDGWDKRYCLRHVENDGYKTIYFFGDKTMPGGNDHEIFTDPRTMGYSVTAPEDTRRICELLFS | not failed
SAAPVDLELKKAFTELQAKVIDTQQKVKLADIQIEQLNRTKKHAHLTDTEIMTLVDETNMYEGVGRMFILQSKEAIHSQLLEKQKIAEEKIKELEQKKSYLERSVKEAEDNIREMLMARRAQ | failed
SADQIRQSVRHSLKDILMKRLTDSNLKVPEEKAAKVATKIEKELFSFFRDTDAKYKNKYRSLMFNLKDPKNNILFKKVLKGEVTPDHLIRMSPEELASKELAAWRRR | not failed
SAFQAAAARLGAPVSHDFCAISLSDLMTPWEVIEKRIEAAASADFVTAVYNPRSRDRYWQIHRFRELFLRHRSPSTPVGIVRNVTRKDESVVLTTLGEFDPDSLDMFTMMLVGNSTTF | not failed
SAKNAYTKLGTDDNAQLLDIRATADFRQVGSPNIKGLGKKAVSTVYNGEDKPGFLKKLSLKFKDPENTTLYILDKFDGNSELVAELVALNGFKSAYAIKDGAEGPRGWLNSSLPWIEPKKT | not failed
SARHFGMALAPWDVMGGGRFQSKKAMEERRKNGEGIRSFVGASEQTDAEIKISEALAKIAEEHGTESVTAIAIAYVRSKAKNFFPSVEGGKIEDLKENIKALSIDLTPDNIKYLESIVPFDIGFPNNFIVLNSLTQKYGTNNV | not failed
SASRGKTETSKLKQNLEEQLDRLMQQLQDLEECREELDTDEYEETKKETLEQLSEFNDSLKKIMSGNMTLVDELSGMQLAIQAAISQAFKTPEVIRLFAKKQPGQLRTRLAEMDRDLMVGKLERDLYTQQKVEILTALRKLGEKLTADDEAFLSANAGAILSQFEKVSTDLGSGDKILALASFEVEKTKK | not failed
SDDDNPTVDPANIDYTPENASSWHNYMRNVAALLKTDATNLYNAWNSSYKGGESYASLFKAHSGSPYASALSCVEEIVDKCAEIANEVGTAKIGDPYNLYKAGNTEEALYAVESWYSWHSRDDYTNNIYSIRNAYYGSLDGNINANSLSTVIAGANSSLDTKIKNAIQKAAKAIQDIPQPFRNHIPSNETVAAMDACAELESILKNDLKSYIANNSNNINTDAVLNPVVTQYVDAVVVPTYKSLKEKNDALYNAVIVLADNPSNSAFETACDAWITAREPWEKSEAFLFGPVDEMGLDPNMDSWPLDQNAIVQILNSQSWSDLEWSEGDDEAAVESAQNVRGFHTLEFLLYKNGEPRKVQ | not failed
SDNEFPDFDYQTVYFANQYGLRTIELGESEFVDNTLDNQHKMVIKAAWGGGYTNRNNVVINFKVDESLCDNLYFKDTDQPLVPMPASYYTLASDRIAIPKGQIMAGVEVQLTDDFFADEKSISENYVIPLLMTNVQGADSILQGKPVVENPVLTNAGDWSILPQNFVLYAVKYVNPWHGEYLRRGIDHATVAGTSKDIIRHEQFVENDEVVNISTKSMKDNLLTLKTKDESGKDISYTVRLSFAEDGSCTVHSGSQNVVVSGSGKFVSKGEKNSLGGKDRNAIYLDYTVNLTDNNIQLATKDTLVLRTRNVYGGKSLEVVRK | not failed
SDPDADRIGVAVRNNEGRMVLINGNEICSLLIYYSIMRRKELGDLHPDDYIVKTIVTTELIRDIAKKEHVSMFDCYTGFKWIAAVIRENEGRRRYIGGGEESYGFLWEDFIRDKSSVSACALFCEMAAWALDRGMSVYRLIRSIYLEYGLYYE | failed
SDRKVAREFRHKVDFLIENDAEKDYLYDVLRMYHQTMDVAVLVGDLKLVINEPSRLPLFDAIRPLIPLKHQVEYDQLTPRRSRKLKEVRLDRLHPEGLGLSVRGGLEFGCGLFISHLIKGGQADSVGLQVGDEIVRINGYSISSCTHEEVINLIRTKKTVSIKVRHIGLIPVKSSPDEPLTWQYVDQFVSESGGVRGSLGSPGNRENKEKKVFISLVGSRGLGCSISSGPIQKPGIFISHVKPGSLSAEVGLEIGDQIVEVNGVDFSNLDHKEGRELFMTDRERLAEARQRELQRQELLMQKRLAMESNKILQEQQEMERQRRKEIAQKAAEENERYRKEMEQIVEEEEKFKKQWEEDWGSKEQLLLPKTITAEVHPVPLRKPKYDQGVEPELEPADDLDGGTEEQGEQDFRKYEEGFDPYSMFTPEQIMGKDVRLLRIKKEGSLDLALEGGVDSPIGKVVVSAVYERGAAERHGGIVKGDEIMAINGKIVTDYTLAEADAALQKAWNQGGDWIDLVVAVCPPKEYDDELTFF | failed
SDSTAGTDAVAVGGTFQFHSPDGKMEIFYDEADRQQLPDIGGDSLMEEGTQINLSDFENQVVILNAWGQWCAPCRSESDDLQIIHEELQAAGNGDTPGGTVLGINVRDYSRDIAQDFVTDNGLDYPSIYDPPFMTAASLGGVPASVIPTTIVLDKQHRPAAVFLREVTSKDVLDVALPLVDEA | not failed
SEDINRNPLLPTKEDEKMDGVIYGAYLPNLEKSVIPIGTASESTEPVNRYQIGVNLAGDAWAGYMSPRDNKFNGSKNFTNYFMYENWVNYVYSFMVTDVYSPWMQIKRISQDEGTRNDEIYALAQIIKIAALHRTTDMFGPIPYSQVGKGSFKVAYDSQESVYRSFLKELEEAVQTLDDYSNKSKEVLPAFDIVYNGDVNKWMRFANSLMLRLAIRVRFADAGLAKEYAEKAVKHPAGLINSKELAAQMGKGAGLQMKNPLKVINEEYNDTRMGATIYSYLAGYNDARAAVYFVKNNGFKAVRCGIAKSGDAYNGFTRPNVHEDDPLYWMKASEVCFLKAEGALAGFDMGGSAGDFYNAGIRMSFSENGLDNSSAETYLKDSTRKPANYTDTSNGELSANAPSSITIRWENGATEEEKLERIITQKYLAIFPNGQEAWTEWRRTGYPRQIVVAENKTNSAVLIGNGYDLGGVRRLPYPRTEYEQNGENLHNAISQYLGGVDNAATKVWWDKKSK | not failed
SEPPKMNPVVEPLSWMLGTWLSDPPGAGTYPTLQPFQYLEEVHISHVGQPMLNFSFNSFHPDTRKPMHRECGFIRLKPDTNKVAFVSAQNTGVVEVEEGEVNGQELCIASHSIARISFAKEPHVEQITRKFRLNSEGKLEQTVSMATTTQPMTQHLHVTYKKVTP | not failed
SERRYKQLFDSGRDGIFVVQMDEEEGVAQIVEANWSAHEMFGYSQGAFEELAFASLVDKGEREGVERLLKELPLKGGALIESHFVLLEHRSIPIELSIQSFLLEEKRTLYVSARDIT | failed
SERTELLKPRTLADLIRILHELFAGDEVNVEEVQAVLEAYESNPAEWALYAKFDQYRYTRNLVDQGNGKFNLMILCWGEGHGSSIHDHTDSHCFLKLLQGNLKETLFDWPDKKSNEMIKKSERTLRENQCAYINDSIGLHRVENVSHTEPAVSLHLYSPPFDTCHAFDQRTGHKNKVTMTFHSKFGIRTPFTTSGSLENN | failed
SEVIRSQKRTVSNDVVSTPTLPLYLTAPHMEVRLEEFELFAIDRLRVLKGVSDGLARARNPNEMDDLVETLWKEHMRLSDVSEMINKDIISHFVLRLVYCRSDELKKWFLSMETAPFRHRFRLKKIEEQRAIVGEFGLPYKAVIGAELESLKERLGLVARSHGQISSDVENIYYKVPFEEVPDLVASRRVLLQKGFAFVAGTQLVSLVVTQFRSHLSKALILTNRKWTTTIREREKDRLTPIVEALSTSYLGPDYSQSNEYADISLKDIDQVSKSSFPLCMRHLFEKLREDHHLKHGGRMQLGLFLKGVGLKLDDALAFWREEFTKKVGSERFDKEYAYAIRHNYGKEGKRTDYTPYACSKIITSAPGAGDHHGCPYRHFSEDNLKAALSRMGLSSRGMEDVMDKVRNRHYQLACTLTFEAVYGTSCDTGINHPNQYFEESQKILKSKTPAAPV | not failed
SFEIGCELEAQRELRAKQTLVGQVIDEDLMSIVYQPVWDIEAMQPLGFECLARFSPLPLRSPDKWFADAAEVGMGVELELHAIRKALQAIGRFPAPIDLSVNASAATILGGDLARLFDGVPLDRLIVEITEHSSVGNYDAILDVLRPLRQRGLRLAVDDAGAGYSSLHHILNMQPDFIKLDIGLTQNIDLDPARKALARALVGFARDTGSRIVAEGVERQSELDALRSIGVKKVQGYLLGRP | failed
SFQTVPSTAETSAVLLQDSGWDALAQRLALIETAEHSIDIQYYIWNSDASGHYLASRLLAAADRGVKVRVMLDDINLNEREDLLVALNAHPHVEIRVFNPIPTRRGVTKWVNFLGDFSRLNRRMHNKSFTVDGVFSVVGGRNIGDEYFDLSNEINFRDRDVLVRGSVVYDIQTSFIEYWDSRWSYPVDLLAKEASQEPLLQKQPVLDEIDAPVYKNYPA | failed
SFRTTKEEVVEKAKAFISAHYTEELNLSVIASQLYVNPFYLRRIFKEETELSPSQYLLKKRIEAALALLVNQEETITDIAFKVGFKSPAHFSTVFRHMIGLPPQKYRES | failed
SFSAPIEDLQVRIAFLDELVEQLNTQLALQTQEIADLKKQMQLLYQRVEASDLSEGIAPFDPNTNKPPHY | failed
SGAAAAEADRTLFVGNLETKVTEELLFELFHQAGPVIKVKIPKDKDGKPKQFAFVNFKHEVSVPYAMNLLNGIRLYGRPIKIQFRSGSSHAPQDVSLSYPQHHVGNSSPTSTSPSRYERTMDNMTSSAQIIQRSFSSPENFQRQAVMNSALRQMSYGGKFGSSPLDQSGFSPSVQSHSHSFNQSSSSQWRQGTPSSQRKVRMNSYPYLADRHYSREQRYTDHGSDHHYRGKRDDFFYEDRNHDDWSHDYDNRRDSSRDGKWRSSRH | not failed
SGDERFTLRIKDLRTGELLPDIIEDIFYGVAFSPDGTRLFYTVVDDSWRPYQVKSHILGTPVAEDEVLYQEDDVAMWLGFDLSSDRRHLVLSIGCSEFSETRLLRFEDYDAGLHTVISREHHILYEAEPFLLDGKETLLLTHNKDAINSMVSLVDPAELSKPLAEQHWRTVVEHSDDVRVNGAGVTSTHLVLSVRKDTIERVQVLPLAGLGTATQGAPVEPAFHEELYTAGVSGSDYESPVIRMGYTSYFTPSRVYDFVLPTAEQPGGELLLRKESPVLGGYSASDYVATREWATADDGTQVPLSVLRHASVQQDGTAAGLVYGYGSYELSMDPGFGVARLSLLDRGIVMVIAHIRGGGELGRKWYEDGKKFTKKNTFTDFIAATDWLAGSGWVDPSRIAAMGGSAGGLLMGAVANMAPEKYAAVVAQVPFVDALTTILDPELPLSALEWEEWGNPITDPEAYAYMKSYTPYENVGAVPYPKIAAVTSFNDTRVLYVEPAKWVQALRSASTGSEPIVMKIEMDGGHGGASGRYVQWRERAWDYAFIADSVG | failed
